The record followed here is article PMC3128532.

The target in this assay is MBP-tagged TANGO1-Coil2 (amino acids 1440-1650) (human) (UniProt Q5JRA6). Kind of assay: pull-down.
UniProt Q5JRA6, sequence (Q5JRA6 1440-1650): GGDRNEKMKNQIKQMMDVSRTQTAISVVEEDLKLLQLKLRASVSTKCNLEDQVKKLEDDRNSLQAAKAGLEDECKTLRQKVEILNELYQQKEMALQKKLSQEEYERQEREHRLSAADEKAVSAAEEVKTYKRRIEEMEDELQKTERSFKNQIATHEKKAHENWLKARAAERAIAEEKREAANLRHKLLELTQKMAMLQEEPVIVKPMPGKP

By stoichiometry N is commonly meant a count of units in the complex or per binding partner. Turning to “ColdTF-tagged cTAGE5-Coil2 (amino acids 301-650) (domain or fragment)”, the stoichiometry N was 1.
